Article PMC4047056

Experiments:
[1] = target: Kv2.1 subunit (unlabeled) (human) (UniProt Q14721)
[2] = target: CFP-tagged N-terminal Kv3.1 fragment (human); test: FRET or BRET; acceptor (YFP) photobleaching FRET in HEK293 cells co-transfected with CFP- and YFP-tagged fragments in a 1:2 cDNA ratio, 48 h after transfection; only cells with YFP/CFP intensity ratio >1
[3] = target: CFP-tagged N-terminal Kv6.4 fragment (human); test: as above
[4] = target: CFP-tagged C-terminal segment of Kv2.1 (human); test: as above
[5] = target: CFP-tagged Kv6.4 C-terminus (human); test: as above
[6] = target: CFP-tagged N-terminal Kv2.1 fragment (human); test: as above

Chain of YFP-tagged N-terminal Kv3.1 fragment (domain or fragment) (P48547 whole entry, the tested form may be a part): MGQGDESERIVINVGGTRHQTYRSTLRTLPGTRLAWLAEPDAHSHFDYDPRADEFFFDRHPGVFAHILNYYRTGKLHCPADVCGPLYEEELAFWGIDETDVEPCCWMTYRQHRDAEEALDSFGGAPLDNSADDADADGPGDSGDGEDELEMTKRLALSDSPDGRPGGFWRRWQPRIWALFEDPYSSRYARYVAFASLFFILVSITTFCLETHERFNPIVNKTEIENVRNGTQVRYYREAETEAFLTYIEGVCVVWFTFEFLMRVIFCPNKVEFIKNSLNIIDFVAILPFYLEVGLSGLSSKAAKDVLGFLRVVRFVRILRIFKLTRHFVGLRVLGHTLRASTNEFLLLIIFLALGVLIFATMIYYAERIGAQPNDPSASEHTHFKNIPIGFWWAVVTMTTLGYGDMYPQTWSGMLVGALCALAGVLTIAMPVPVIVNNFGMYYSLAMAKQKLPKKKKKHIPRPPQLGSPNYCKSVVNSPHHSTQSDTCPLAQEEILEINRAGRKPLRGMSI
Chain of CFP-tagged N-terminal Kv6.4 fragment (human) (Q8TDN1 whole entry, the tested form may be a part): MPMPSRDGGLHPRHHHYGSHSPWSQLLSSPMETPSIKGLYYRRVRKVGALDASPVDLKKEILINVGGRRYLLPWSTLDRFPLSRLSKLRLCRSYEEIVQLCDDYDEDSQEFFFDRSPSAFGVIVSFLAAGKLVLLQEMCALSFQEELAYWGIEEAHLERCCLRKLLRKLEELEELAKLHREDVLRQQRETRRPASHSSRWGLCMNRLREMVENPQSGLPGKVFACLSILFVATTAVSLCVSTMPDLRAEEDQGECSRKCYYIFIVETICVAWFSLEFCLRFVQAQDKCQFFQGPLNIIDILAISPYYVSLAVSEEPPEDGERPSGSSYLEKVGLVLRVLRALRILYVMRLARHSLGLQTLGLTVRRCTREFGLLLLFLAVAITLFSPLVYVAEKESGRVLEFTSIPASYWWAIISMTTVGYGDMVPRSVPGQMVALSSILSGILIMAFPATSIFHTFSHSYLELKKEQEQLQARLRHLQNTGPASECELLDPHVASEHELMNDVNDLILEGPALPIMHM
Chain of CFP-tagged N-terminal Kv3.1 fragment (human) (P48547 whole entry, the tested form may be a part): as the sequence (P48547 whole entry, the tested form may be a part) above
Chain of CFP-tagged Kv6.4 C-terminus (human) (Q8TDN1 whole entry, the tested form may be a part): as the sequence (Q8TDN1 whole entry, the tested form may be a part) above

With “Kv6.4(CKv3.1) chimera in which the C-terminus of Kv6.4 was replaced by the corresponding domain of Kv3.1” the midpoint of inactivation, V1/2, 1st component of the double Boltzmann fit (as of Kv2.1 homotetramers), whole-cell currents in HEK293 cells co-expressing Kv2.1 and Kv6.4(CKv3.1) [1] was -24.3 mV and the midpoint of inactivation, V1/2, 2nd component of the double Boltzmann fit, whole-cell currents in HEK293 cells co-expressing Kv2.1 and Kv6.4(CKv3.1) [1] was -71.1 mV.
Work on “YFP-tagged N-terminal Kv3.1 fragment (domain or fragment)” yielded an FRET efficiency [2] of 28.8% and an FRET efficiency [3] of 9.6%.
In the case of “YFP-tagged N-terminal Kv2.1 fragment (domain or fragment)”, the FRET efficiency [4] is reported as 8.3%, the FRET efficiency [5] is reported as 8.7% and the FRET efficiency [6] is reported as 21.7%. It also gave an FRET efficiency [3] of 21.3%.
